According to the supplement of paper PMC11246515:
± gives the standard deviation of the averaged measurements.

Experiment: total protein half-life in vivo (active degradation + dilution); higher = more stable protein
[1] = E. coli NCM3722 delta-clpP delta-lon delta-hslV, growth: N-lim chemostat, doubling time 6 h
[2] = E. coli NCM3722 delta-clpP, growth: N-lim chemostat, doubling time 6 h
[3] = E. coli NCM3722 delta-smpB, growth: N-lim chemostat, doubling time 6 h
[4] = wild type E. coli NCM3722, growth: C-lim chemostat, doubling time 3 h
[5] = wild type E. coli NCM3722, growth: C-lim chemostat, doubling time 6 h
[6] = wild type E. coli NCM3722, growth: C-lim chemostat, doubling time 12 h
[7] = wild type E. coli NCM3722, growth: N-lim chemostat, doubling time 6 h
[8] = wild type E. coli NCM3722, growth: N-lim chemostat, doubling time 12 h
[9] = wild type E. coli NCM3722, growth: P-lim chemostat, doubling time 12 h
[10] = E. coli NCM3722 delta-hslV, growth: N-lim chemostat, doubling time 6 h
[11] = E. coli NCM3722 delta-lon, growth: N-lim chemostat, doubling time 6 h
[12] = wild type E. coli NCM3722, growth: P-lim chemostat, doubling time 6 h

Row | Sequence | total protein half-life in vivo [1] [h] | total protein half-life in vivo [2] [h] | total protein half-life in vivo [3] [h] | total protein half-life in vivo [4] [h] | total protein half-life in vivo [5] [h] | total protein half-life in vivo [6] [h] | total protein half-life in vivo [7] [h] | total protein half-life in vivo [8] [h] | total protein half-life in vivo [9] [h] | total protein half-life in vivo [10] [h] | total protein half-life in vivo [11] [h] | total protein half-life in vivo [12] [h]
1 | MQEYTNHSDTTFALRNISFRVPGRTLLHPLSLTFPAGKVTGLIGHNGSGKSTLLKMLGRHQPPSEGEILLDAQPLESWSSKAFARKVAYLPQQLPPAEGMTVRELVAIGRYPWHGALGRFGAADREKVEEAISLVGLKPLAHRLVDSLSGGERQRAWIAMLVAQDSRCLLLDEPTSALDIAHQVDVLSLVHRLSQERGLTVIAVLHDINMAARYCDYLVALRGGEMIAQGTPAEIMRGETLEMIYGIPMGILPHPAGAAPVSFVY | 5.18 | 5.55 | 5.19 ± 0.12 | 2.65 ± 0.19 | 6.7 | 11.4 | 6.03 ± 0.81 | 10.7 | 12.9 ± 3 | – | – | –
2 | MHEIFNMLLAVFDRAALMLICLFFLIRIRLFRELLHKSAHSPKELLAVTAIFSLFALFSTWSGVPVEGSLVNVRIIAVMSGGILFGPWVGIITGVIAGIHRYLIDIGGVTAIPCFITSILAGCISGWINLKIPKAQRWRVGILGGMLCETLTMILVIVWAPTTALGIDIVSKIGIPMILGSVCIGFIVLLVQSVEGEKEASAARQAKLALDIANKTLPLFRHVNSESLRKVCEIIRDDIHADAVAITNTDHVLAYVGVGEHNYQNGDDFISPTTRQAMNYGKIIIKNNDEAHRTPEIHSMLVIPLWEKGVVTGTLKIYYCHAHQITSSLQEMAVGLSQIISTQLEVSRAEQLREMANKAELRALQSKINPHFLFNALNAISSSIRLNPDTARQLIFNLSRYLRYNIELKDDEQIDIKKELYQIKDYIAIEQARFGDKLTVIYDIDEEVNCCIPSLLIQPLVENAIVHGIQPCKGKGVVTISVAECGNRVRIAVRDTGHGIDPKVIERVEANEMPGNKIGLLNVHHRVKLLYGEGLHIRRLEPGTEIAFYIPNQRTPVASQATLLL [P0AA93] | 6.72 | 6.87 ± 0.77 | 5.52 ± 0.31 | 2.84 ± 0.064 | – | – | 5.53 ± 0.67 | – | 14.8 ± 0.34 | 6.53 ± 0.56 | – | –
3 | MRRTFTAEEKASVFELWKNGTGFSEIANILGSKPGTIFTMLRDTGGIKPHERKRAVAHLTLSEREEIRAGLSAKMSIRAIATALNRSPSTISREVQRNRGRRYYKAVDANNRANRMAKRPKPCLLDQNLPLRKLVLEKLEMKWSPEQISGWLRRTKPRQKTLRISPETIYKTLYFRSREALHHLNIQHLRRSHSLRHGRRHTRKGERGTINIVNGTPIHERSRNIDNRRSLGHWEGDLVSGTKNSHIATLVDRKSRYTIILRLRGKDSVSVNQALTDKFLSLPSELRKSLTWDRGMELARHLEFTVSTGVKVYFCDPQSPWQRGTNENTNGLIRQYFPKKTCLAQYTQHELDLVAAQLNNRPRKTLKFKTPKEIIERGVALTD [P0CF90] | 5.45 ± 0.8 | – | – | – | – | – | – | – | – | – | – | –
4 | MNNRVHQGHLARKRFGQNFLNDQFVIDSIVSAINPQKGQAMVEIGPGLAALTEPVGERLDQLTVIELDRDLAARLQTHPFLGPKLTIYQQDAMTFNFGELAEKMGQPLRVFGNLPYNISTPLMFHLFSYTDAIADMHFMLQKEVVNRLVAGPNSKAYGRLSVMAQYYCNVIPVLEVPPSAFTPPPKVDSAVVRLVPHATMPHPVKDVRVLSRITTEAFNQRRKTIRNSLGNLFSVEVLTGMGIDPAMRAENISVAQYCQMANYLAENAPLQES | 5.45 ± 0.071 | 5.39 ± 0.83 | 5.39 ± 0.63 | 2.972 ± 0.017 | 5.41 ± 0.75 | 12.5 ± 1.5 | 5.24 ± 0.29 | 9.91 ± 1.2 | 10.6 ± 0.28 | 5.18 ± 0.36 | 5.84 ± 0.95 | 5.56 ± 0.3
5 | MTIWVDADACPNVIKEILYRAAERMQMPLVLVANQSLRVPPSRFIRTLRVAAGFDVADNEIVRQCEAGDLVITADIPLAAEAIEKGAAALNPRGERYTPATIRERLTMRDFMDTLRASGIQTGGPDSLSQRDRQAFAAELEKWWLEVQRSRG [P0A8D3] | 3.56 ± 0.87 | 3.08 | 3.16 ± 0.032 | 2.73 ± 0.094 | 4.33 ± 0.21 | 8.06 ± 2.6 | 3.55 ± 0.43 | 4.5 ± 0.6 | 9.109 ± 0.034 | 3.2 ± 0.18 | 3.89 ± 0.53 | 5.28 ± 0.43
6 | MRYIKSITQQKLSFLLAIYIGLFMNGAVFYRRFGSYAHDFTVWKGISAVVELAATVLVTFFLLRLLSLFGRRSWRILASLVVLFSAGASYYMTFLNVVIGYGIIASVMTTDIDLSKEVVGLNFILWLIAVSALPLILIWNNRCRYTLLRQLRTPGQRIRSLAVVVLAGIMVWAPIRLLDIQQKKVERATGVDLPSYGGVVANSYLPSNWLSALGLYAWARVDESSDNNSLLNPAKKFTYQAPQNVDDTYVVFIIGETTRWDHMGIFGYERNTTPKLAQEKNLAAFRGYSCDTATKLSLRCMFVRQGGAEDNPQRTLKEQNIFAVLKQLGFSSDLYAMQSEMWFYSNTMADNIAYREQIGAEPRNRGKPVDDMLLVDEMQQSLGRNPDGKHLIILHTKGSHFNYTQRYPRSFAQWKPECIGVDSGCTKAQMINSYDNSVTYVDHFISSVIDQVRDKKAIVFYAADHGESINEREHLHGTPRELAPPEQFRVPMMVWMSDKYLENPANAQAFAQLKKEADMKVPRRHVELYDTIMGCLGYTSPDGGINENNNWCHIPQAKEAAAN | 4 ± 0.3 | – | 3.61 ± 0.3 | 2.87 ± 0.19 | 4.84 ± 0.023 | 8.037 ± 0.012 | 5.66 ± 0.37 | 8.75 ± 0.59 | 6.76 ± 1.3 | 4.35 ± 1.7 | 6.45 ± 0.89 | 4.14 ± 1.1
7 | MTPEHLPTEQYEAQLAEKVVRLQSMMAPFSDLVPEVFRSPVSHYRMRAEFRIWHDGDDLYHIIFDQQTKSRIRVDSFPAASELINQLMTAMIAGVRNNPVLRHKLFQIDYLTTLSNQAVVSLLYHKKLDDEWRQEAEALRDALRAQNLNVHLIGRATKTKIELDQDYIDERLPVAGKEMIYRQVENSFTQPNAAMNIQMLEWALDVTKGSKGDLLELYCGNGNFSLALARNFDRVLATEIAKPSVAAAQYNIAANHIDNVQIIRMAAEEFTQAMNGVREFNRLQGIDLKSYQCETIFVDPPRSGLDSETEKMVQAYPRILYISCNPETLCKNLETLSQTHKVERLALFDQFPYTHHMECGVLLTAK | 6.08 ± 1.6 | 5.19 ± 0.62 | 5.35 ± 0.35 | – | 6.89 ± 0.74 | 12.6 ± 2.2 | 4.83 ± 0.21 | 11.3 ± 2.8 | 13.8 ± 1.9 | 4.85 ± 0.33 | 5.53 ± 0.082 | 5.56 ± 0.39
8 | MPPRALLLVDLQNDFCAGGALAVPEGDSTVDVANRLIDWCQSRGEAVIASQDWHPANHGSFASQHGVEPYTPGQLDGLPQTFWPDHCVQNSEGAQLHPLLHQKAIAAVFHKGENPLVDSYSAFFDNGRRQKTSLDDWLRDHEIDELIVMGLATDYCVKFTVLDALQLGYKVNVITDGCRGVNIQPQDSAHAFMEMSAAGATLYTLADWEETQG | 4.67 ± 0.11 | 3.93 ± 0.17 | 3.78 ± 0.19 | 3.05 ± 0.12 | 6.27 ± 1.3 | 10.1 ± 0.99 | 4.16 ± 0.32 | 6.53 | 11.1 ± 0.22 | – | 4.52 ± 1.1 | 4.76
